# Measurements published in the RNAGym collection of RNA variant scans (doi:10.1073/pnas.2313332121).
# B1: TPR t1 (parent)
# chain: GACCAAUCUGCCCUCAGAGCUCGAGAACAUCUUCGGAUGCAGAGGAGGCAGGCUUCGGUGGCGCGAUAGCGCCAACGUCCUCAACCUCCAAUGCAUCCCACCACAUGAUGAUGCCUGAAGAGCCUUGGUUUUUUG
# Variants of: B1
# Assay: polymerase ribozyme fitness, log enrichment relative to wild type (log ratio); higher = more active; in vitro selection for triplet polymerase activity
# How it was run: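 PCR was used to build mutant libraries for each subunit of a heterodimeric triplet polymerase ribozyme, which were then transcribed. A single in vitro selection round, in triplicate, used a frozen incubation at −7 °C and recovered extended constructs by gel excision, streptavidin beads and RT-PCR. Fitness is the logarithm of genotype enrichment relative to wild-type enrichment, averaged over replicates with inverse-variance weights. The logarithm is base 2, and after Illumina sequencing only genotypes with ≥10 input reads and ≥1 read per output were kept.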
row,Variant,polymerase ribozyme fitness (log ratio)
1,G58A A111C A119C G120U G127U,-1.16
2,G60C A103U,-5.01
3,G58C C80A,-3.5
4,G60A C70U C102A C115A,-3.29
5,C56U G63U,-4.18
6,C56G C114G,-3.74
7,G60C C62U,-2.34
8,G58C G63C,-2.61
9,C56G C89G A90C,-3.29
10,G57A G69U,-0.426
11,U59C G127U,-0.462
12,U59A C114A,-1.7
13,C56U C64U,-1.54
14,U59A A74C C82A G93C,-1.19
15,G60A G77U,-0.312
16,G60A C99U G127A,-4.87
17,U59C G128U,-2.04
18,G57A U78C,-1.27
19,C56U U59G A74G C102A G127U,-3.57
20,G57C G110U G120U,-4.33
21,G58A U125G,-0.683
22,C56U C80U C101U A121C,0.686
23,C56U A75U C86U,-0.18
24,G57A A75U U96C U131C,-1.53

row,Variant,polymerase ribozyme fitness (log ratio)
1,U59C G122A C123U G128C,-0.638
2,G57U C85A,-2.14
3,C56U A83G,-0.676
4,U59C A91C G120C U133C G135U,-0.803
5,U59C A84G,-1.4
6,G57U C79U A108G,-2.71
7,G57U G61C U92C,-2.88
8,G60A A66U,-1.29
9,G57C C97G,-4.65
10,G57C C97U,-0.494
11,U59G C70U C101A,-2.5
12,G57A C104U,-0.961
13,G57A C104A,-2.92
14,C56U G60U U87A,-3.76
15,C56G G69U,-0.682
16,G57U C72G C115A U132C G135C,-4.51
17,G57A C99U,-4.88
18,G60A C82A A95G,0.0608
19,G57A A84C,-1.76
20,G60C C86U U106A,-0.567
21,U59A C89A,-1.85
22,U59G A90U,-0.957
23,U59C A108G,-2.19
24,G57A A103G,-4.05

row,Variant,polymerase ribozyme fitness (log ratio)
1,U59A C104U,0.251
2,G60A G77C A111C C123A,-3.68
3,G58C C72G A121U,1.78
4,U59G U130G,-0.605
5,G57C C97U G110U C115U,-6.98
6,C56G G110A U116G,-3.62
7,C56G A74U,-0.327
8,C56U C82G U130C,-0.672
9,G57A C115G,-2.25
10,C56U G61U G93A A111U U116C,-4.78
11,G57U C62U U67C U87G C101G G113C,-6.27
12,U59G G61A,-2.76
13,C56U C80A C114U,-4.51
14,U59A C82A G93C,-0.829
15,C56U A111U,-1.9
16,G60A C104U,0.164
17,U59A C70U U125A U133A,-1.97
18,G58C C101G C114A,-3.77
19,U59C U92G C114G U125G,-4.63
20,G58C A84U A100C,-1.55
21,G58A U129C,-0.222
22,C56U C114A G128A U133G,-4.81
23,G60A A100U,-0.621
24,G58C G93A C114U,-3.02

row,Variant,polymerase ribozyme fitness (log ratio)
1,G60C C86U U106G G120A,-2.2
2,C56U C80U,-1.17
3,C56G A68G C73A A111G G135U,-6.08
4,G58C C73G C80U C102A G113A,-5.77
5,G58C G77A C97U,0.13
6,G57A G122C C123A U130C,-1.47
7,C56G C94G,-1.87
8,C56G C99A,-6.98
9,C56U C82A G110C,-4.8
10,U59G C85U C115A,-0.695
11,G57U U132C,0.0378
12,G57C C62U G135U,-1.15
13,G57C A91C,-0.77
14,C56G C64U,-0.732
15,G60A A121C,1.29
16,C56U A90C G110A A111G U132A,-0.678
17,G58A C82G C88A G127U,-3.33
18,C56G G120C,0.755
19,G58C G71C C115A A118U,-1.75
20,C56G G69U U81A C88A A100U,-2.69
21,U59G C73A C88A,-2.15
22,G57U C62U U81A,-0.351
23,C56U U129A,-1.15
24,G60A G69U C82U C85G U129A,-4.53

row,Variant,polymerase ribozyme fitness (log ratio)
1,G60A C88G G113A,-2.28
2,C56G C89G U96A,-2.31
3,G58C G60U A118G,-0.24
4,U59A C114A U130A,-2.17
5,G60A C80A C88A,-3.61
6,G58U A103C A121G,-4.29
7,C56U A90G U132A,0.308
8,C56U C72U,-0.11
9,C56U C72A,-0.0735
10,G58U C73U,-0.0574
11,C56A U106A,-0.695
12,G60A C94U C124U,1.59
13,U59A U81A A119U,-0.551
14,C56G C88U C94A G110U,-4.78
15,C56U C73U,-0.755
16,U59C G93C G113U U133G,-3.53
17,G58C U133A,0.072
18,G60A C99A A103C A111C,-6.52
19,G57C G61A C97G,-4.41
20,G57C C99U A118G,-4.32
21,U59C U106G U112G,-2.31
22,C56U U92C,-0.619
23,C56G A75G U109C,-7.14
24,G57C G60U A100U U130G,-0.0419

row,Variant,polymerase ribozyme fitness (log ratio)
1,U59A G63A,-1.13
2,G60A C79U U96A C115U C123G U132A,-1.19
3,G57C U87A,-1.1
4,G58C U96G C104U,-0.405
5,G60A C80A C85G C98U,-5.64
6,G58A U96C,-0.271
7,U59C A119G,0.816
8,C56U C88U C114A G120A,-1.81
9,C56G U59G C97A,-5.51
10,G57A U59C G120C U132A,-0.265
11,U59A C124A,1.62
12,U59C C72U G117A,-1.45
13,G57U U125A,-0.415
14,G58C C102A,-2.66
15,C56U C86U G117A,-1.37
16,C56G C62U C64U C82A C89U C123A,-3.52
17,G58C G69A C123A,-3.42
18,G60C C80A,-4.35
19,C56G G58C,0.394
20,U59G G60A C70G C115A A121C,-4.99
21,G57A G63A,-2.04
22,C56U C73G U96A U106A,-3.7
23,G58C C82G U87G G93C C123A,-0.69
24,G57U G93A G110C,-5.09

row,Variant,polymerase ribozyme fitness (log ratio)
1,G60C A83C C115U,-1.05
2,U59G C104A A105U G110A,-5.5
3,G60A U131G,0.0187
4,C56U C86U C124U U131A,1.32
5,G60A C88U G127A,-1.7
6,G57U A91G C114A U131A,-3.11
7,G60C C89U C123G,1.06
8,C56U A103U,-4.81
9,G58C C70U A103U,-6.42
10,C56G A84G G120A,-0.771
11,C56U U96G C101A G113C,-3.97
12,C56U A90G U125A,-0.318
13,G58C C72U A119U,-0.967
14,U59G G63A U87C C114U,-4.39
15,C56U C115A U133C,1.27
16,G57U C62G A121G U130A,-0.352
17,C56U C89A,-1.04
18,G57U U78G C114U A118U,-3.81
19,C56U A90G G93C,-1.38
20,G58A G60A,-0.506
21,C56G A83C C101A C124G,0.428
22,U59A C88U A118U,0.167
23,U59C U109C C114A,-6.67
